# In article doi:10.1101/2024.10.01.615909 (bioRxiv, 2024):
# B1: His8-SUMO (HS)-IQD2 (natural protein)
# chain: MGKKAKWFSSVKKAFSPDSKKSKQKLAEGQNGVISNPPVVDNVRQSSSSPPPALAPREVRVAEVIVERNRDLSPPSTADAVNVTATDVPVVPSSSAPGVVRRATPTRFAGKSNEEAAAILIQTIFRGYLARRALRAMRGLVRLKLLMEGSVVKRQAANTLKCMQTLSRVQSQIRARRIRMSEENQARQKQLLQKHAKELAGLKNGDNWNDSIQSKEKVEANLLSKYEATMRRERALAYSYSHQQNWKNNSKSGNPMFMDPSNPTWGWSWLERWMAGRPLESSEKEQSNSNNDNAASVKGSINRNEAAKSLTRNGSTQPNTPSSARGTPRNKNSFFSPPTPSRLNQSSRKSNDDDSKSTISVLSERNRRHSIAGSSVRDDESLAGSPALPSYMVPTKSARARLKPQSPLGGTTQENEGFTDKASAKKRLSYPTSPALPKPRRFSAPPKVESGGVTVTNGAGS
# Biological target: T1, S-tag-KLCR1 (Arabidopsis thaliana, UniProt O81629 1-609)
# T1 sequence: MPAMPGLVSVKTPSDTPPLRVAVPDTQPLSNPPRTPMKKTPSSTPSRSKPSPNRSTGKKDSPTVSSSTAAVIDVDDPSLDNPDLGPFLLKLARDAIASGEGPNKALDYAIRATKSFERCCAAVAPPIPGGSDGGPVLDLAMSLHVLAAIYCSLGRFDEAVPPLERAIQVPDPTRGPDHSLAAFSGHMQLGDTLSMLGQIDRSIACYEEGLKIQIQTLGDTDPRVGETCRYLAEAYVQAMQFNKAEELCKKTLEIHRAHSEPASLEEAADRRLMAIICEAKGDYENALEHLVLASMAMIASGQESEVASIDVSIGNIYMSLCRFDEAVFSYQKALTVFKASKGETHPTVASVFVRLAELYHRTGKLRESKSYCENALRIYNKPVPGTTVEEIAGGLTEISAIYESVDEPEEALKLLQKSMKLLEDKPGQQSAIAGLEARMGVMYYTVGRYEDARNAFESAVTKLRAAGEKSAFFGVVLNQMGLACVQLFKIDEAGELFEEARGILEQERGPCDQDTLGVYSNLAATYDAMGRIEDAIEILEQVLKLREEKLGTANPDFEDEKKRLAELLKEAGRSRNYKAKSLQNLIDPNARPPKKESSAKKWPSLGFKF
# Test: co-sedimentation
binder,measurement,value
B1,binding result,binds
